{"source": "patent US20250387492A1", "about": "“HSP90-TARGETING CONJUGATES AND FORMULATIONS THEREOF” (Fusion Pharmaceuticals Inc., priority 2018, published 2025)", "key": {"[1]": {"test": "Biodistribution in H460 tumor model", "conditions": "mouse, in vivo, 5 mg/kg", "from_the_text": "(§1) In other studies, biodistribution of the conjugates was studied with H460 and H69 tumor models."}, "H460 tumor model mice": {"system": "H460 tumor model mice", "test": "Biodistribution in H460 tumor model", "conditions": "5 mg/kg", "from_the_text": "as §1"}, "[2]": {"test": "Biodistribution in H69 tumor model", "conditions": "mouse, in vivo, 5 mg/kg", "from_the_text": "as §1"}, "[3]": {"test": "Lu levels in tumor, kidney and liver of mice at 0.5 mg/kg", "conditions": "for Tumor uptake (comparison): vs Conjugate 1 and Conjugate 2"}, "H69 tumor model mice": {"system": "H69 tumor model mice", "test": "Biodistribution in H69 tumor model", "conditions": "H69 tumor model, 5 mg/kg, 48 h, individual animals", "from_the_text": "as §1"}, "in vivo": {"test": "in vivo", "conditions": "female, Nude, mouse, iv, 3.7 MBq, total radioactivity", "protocol": "Radioactive conjugate accumulation was measured in tumor, plasma and healthy tissues of NCI-H460 tumor-bearing mice (lung cancer). […] For each tissue, the percent injected dose per gram of tissue % ID/g was calculated."}, "[4]": {"conditions": "Concentration in H460 tumor, H460 tumor model, individual animals"}, "[5]": {"conditions": "Concentration in Mouse kidney, H460 tumor model, individual animals"}, "[6]": {"conditions": "Concentration in Mouse plasma, H460 tumor model, individual animals"}}, "note": "Entries after “also recorded” stand apart in the source; their conditions may differ."}
{"smiles": "CCNC(=O)c1nnc(-c2cc(C(C)C)c(O)cc2O)n1-c1ccc(CN2CCN(C(=O)CCNC(=O)[C@@H](CCC(=O)O)NC(=O)[C@@H](CCC(=O)O)NC(=O)[C@@H](CCC(=O)O)NC(=O)CN3CCN4CCN5CCN(CC3)CC(=O)[O][Lu]([O]C(=O)C4)[O]C(=O)C5)CC2)cc1", "note": "[Conjugate 2]", "values": [{"measurement": "level at time molar at 1 h", "setting": "[1]; [4]", "result": 1170, "unit": "nM"}, {"measurement": "level at time molar at 48 h", "setting": "[1]; [4]", "result": 220, "unit": "nM"}, {"measurement": "level at time molar at 1 h", "setting": "[1]; [5]", "result": 1550, "unit": "nM"}, {"measurement": "level at time molar at 24 h", "setting": "[1]; [5]", "result": 1450, "unit": "nM"}, {"measurement": "level at time molar at 48 h", "setting": "[1]; [5]", "result": 540, "unit": "nM"}, {"measurement": "level at time molar at 1 h", "setting": "[1]; Concentration in Mouse liver, H460 tumor model, individual animals", "result": 16, "unit": "nM"}, {"measurement": "level at time molar at 24 h", "setting": "[1]; Tumor Levels, H460 (2), H460 study (2)", "result": 650, "unit": "nM"}, {"measurement": "Clearance from plasma", "setting": "H460 tumor model mice; H460 and H69 tumor models", "result": "clear rapidly from plasma; also recorded: slightly superior"}, {"measurement": "Tumor retention (comparison)", "setting": "H460 tumor model mice; H460 and H69 tumor models, Conjugate 1 vs Conjugate 2", "result": "similar"}, {"measurement": "Concentration in Mouse kidney", "setting": "H460 tumor model mice; H460 tumor model, 48 h, individual animals", "result": 540, "unit": "nM"}, {"measurement": "level at time molar at 24 h", "setting": "[2]; Concentration in H69 tumor, H69 tumor model, individual animals", "result": 240, "unit": "nM"}, {"measurement": "level at time molar at 24 h", "setting": "[2]; Tumor Levels, H69, 5 mg/kg, H69", "result": 330, "unit": "nM"}, {"measurement": "Average Lu in kidney", "setting": "[3]", "result": 2.86, "unit": "% ID/g"}, {"measurement": "Average Lu in tumor", "setting": "[3]", "result": 0.92, "unit": "% ID/g"}]}
{"smiles": "CCNC(=O)c1nnc(-c2cc(C(C)C)c(O)cc2O)n1-c1ccc(CN2CCN(C(=O)CCNC(=O)[C@@H](CCCCN)NC(=O)[C@@H](CCCCN)NC(=O)[C@@H](CCCCN)NC(=O)CN3CCN(CC(=O)O)CCN(CC(=O)O)CCN(CC(=O)O)CC3)CC2)cc1", "note": "[Conjugate 3]", "values": [{"measurement": "level at time molar at 48 h", "setting": "[1]; [4]", "result": 91, "unit": "nM"}, {"measurement": "level at time molar at 1 h", "setting": "[1]; [5]", "result": 4520, "unit": "nM"}, {"measurement": "level at time molar at 48 h", "setting": "[1]; [5]", "result": 4290, "unit": "nM"}, {"measurement": "level at time molar at 24 h", "setting": "[1]; [6]", "result": 11, "unit": "nM"}, {"measurement": "level at time molar at 48 h", "setting": "[1]; [6]", "result": 11, "unit": "nM"}, {"measurement": "Concentration in Mouse liver", "setting": "H460 tumor model mice; H460 tumor model, 1 h, individual animals", "result": 70, "unit": "nM"}, {"measurement": "level at time molar at 48 h", "setting": "[2]; Concentration in H69 tumor, H69 tumor model, 48 h, individual animals", "result": 200, "unit": "nM"}, {"measurement": "level at time molar at 24 h", "setting": "[2]; Concentration in Mouse liver, H69 tumor model, individual animals", "result": 80, "unit": "nM"}, {"measurement": "level at time molar at 1 h", "setting": "[2]; Concentration in Mouse plasma, H69 tumor model, 1 h, individual animals", "result": 1220, "unit": "nM"}, {"measurement": "level at time molar at 24 h", "setting": "[2]; Concentration in Mouse plasma, H69 tumor model, individual animals", "result": 38, "unit": "nM"}, {"measurement": "Concentration in H69 tumor", "setting": "H69 tumor model mice", "result": 200, "unit": "nM"}]}
{"smiles": "CCNC(=O)c1nnc(-c2cc(C(C)C)c(O)cc2O)n1-c1ccc(CN2CCN(C(=O)CCNC(=O)CC[C@@H](NC(=O)CC[C@@H]3C(=O)[O][Lu]4[O]C(=O)CN5CCN(CC(=O)O)CCN3CCN(CC5)CC(=O)[O]4)C(=O)N3CCN(Cc4ccc(-n5c(C(=O)NCC)nnc5-c5cc(C(C)C)c(O)cc5O)cc4)CC3)CC2)cc1", "note": "[Conjugate 9]", "values": [{"measurement": "Average Lu in Liver", "setting": "[3]", "result": 2.92, "unit": "% ID/g"}, {"measurement": "Average Lu in kidney", "setting": "[3]", "result": 2.40, "unit": "% ID/g"}, {"measurement": "Average Lu in tumor", "setting": "[3]", "result": 5.73, "unit": "% ID/g"}, {"measurement": "Tumor uptake (comparison)", "setting": "[3]", "result": "noticeably higher than Conjugate 1 and Conjugate 2"}]}
{"smiles": "CCNC(=O)c1nnc(-c2cc(C(C)C)c(O)cc2O)n1-c1ccc(CN2CCN(C(=O)CCNC(=O)[C@@H](CCC(=O)O)NC(=O)[C@@H](CCC(=O)O)NC(=O)[C@@H](CCC(=O)O)NC(=O)COCCOCCNC(=O)CCCCn3cc(CN(CCCNC(=O)CC[C@H](C(=O)O)N4CCN5CCN6CCN(CC4)CC(=O)[O][Lu]([O]C(=O)C6)[O]C(=O)C5)C(=O)CCCNC(=O)CCCc4ccc(I)cc4)nn3)CC2)cc1", "note": "[Conjugate 10]", "values": [{"measurement": "Average Lu in Liver", "setting": "[3]", "result": 1.51, "unit": "% ID/g"}, {"measurement": "Average Lu in kidney", "setting": "[3]", "result": 11.18, "unit": "% ID/g"}, {"measurement": "Average Lu in tumor", "setting": "[3]", "result": 8.49, "unit": "% ID/g"}, {"measurement": "Tumor uptake (comparison)", "setting": "[3]", "result": "noticeably higher than Conjugate 1 and Conjugate 2"}]}
{"smiles": "CCNC(=O)c1nnc(-c2cc(C(C)C)c(O)cc2O)n1-c1ccc(CN2CCN(C(=O)CCNC(=O)[C@@H](CCC(=O)O)NC(=O)[C@@H](CCC(=O)O)NC(=O)[C@@H](CCC(=O)O)NC(=O)CN3CCN(CC(=O)O)CCN(CC(=O)O)CCN(CC(=O)O)CC3)CC2)cc1", "note": "[^177Lu-2, metal not drawn]", "values": [{"measurement": "tissue uptake at 6 h", "setting": "in vivo; Radioactivity in Bone Marrow", "result": 0.01, "unit": "%ID/g"}, {"measurement": "tissue uptake at 6 h", "setting": "in vivo; Radioactivity in Brain", "result": 0.01, "unit": "%ID/g"}, {"measurement": "tissue uptake at 6 h", "setting": "in vivo; Radioactivity in Eyes", "result": 0.12, "unit": "%ID/g"}, {"measurement": "tissue uptake at 6 h", "setting": "in vivo; Radioactivity in Kidney", "result": 4.29, "unit": "%ID/g"}, {"measurement": "tissue uptake at 6 h", "setting": "in vivo; Radioactivity in Liver", "result": 0.33, "unit": "%ID/g"}, {"measurement": "tissue uptake at 6 h", "setting": "in vivo; Radioactivity in Tumor", "result": 1.21, "unit": "%ID/g"}]}
